Laboratory results published in article PMC6614540.

What was measured:
[1] = molecular target: Gh-TDH D78A mutant (Grimontia hollisae); experiment: native gel or EMSA; native PAGE, 10% polyacrylamide gel, no SDS, 4 °C, running buffer 90 mM Tris-base, 2.5 mM EDTA, 80 mM boric acid pH 8.0, 90 V for 3 h, Coomassie stain
[2] = molecular target: Gh-TDH F159D mutant (Grimontia hollisae)
[3] = molecular target: Gh-TDH F159D mutant (Grimontia hollisae); experiment: AUC; 1 mg/mL protein in 20 mM Tris-HCl pH 7.2, 42,000 rpm, 20 °C, 280 nm; c(s) distribution and apparent molecular mass
[4] = molecular target: Gh-TDH F159D mutant (Grimontia hollisae); experiment: native gel or EMSA; native PAGE, 10% polyacrylamide gel, no SDS, 4 °C, running buffer 90 mM Tris-base, 2.5 mM EDTA, 80 mM boric acid pH 8.0, 90 V for 3 h, Coomassie stain
[5] = molecular target: Gh-TDH Y53D mutant (Grimontia hollisae)
[6] = molecular target: Gh-TDH Y53D mutant (Grimontia hollisae); experiment: AUC; 1 mg/mL protein in 20 mM Tris-HCl pH 7.2, 42,000 rpm, 20 °C, 280 nm; c(s) distribution and apparent molecular mass
[7] = molecular target: Gh-TDH Y53D mutant (Grimontia hollisae); experiment: native gel or EMSA; native PAGE, 10% polyacrylamide gel, no SDS, 4 °C, running buffer 90 mM Tris-base, 2.5 mM EDTA, 80 mM boric acid pH 8.0, 90 V for 3 h, Coomassie stain
[8] = molecular target: Gh-TDH Y53D/F159D double mutant (Grimontia hollisae)
[9] = molecular target: Grimontia hollisae thermostable direct hemolysin, wild type (Grimontia hollisae); experiment: AUC; 1 mg/mL protein in 20 mM Tris-HCl pH 7.2, 42,000 rpm, 20 °C, 280 nm; c(s) distribution and apparent molecular mass

Q: With Gh-TDH D78A mutant (natural protein) as the substance, how does the stoichiometry N [1] read?
A: 4

Q: Which hemolytic activity on rabbit erythrocytes, decrease against Gh-TDH^WT [2] does the source give for Gh-TDH F159D mutant (natural protein) here?
A: 10 fold

Q: And the stoichiometry N [3]?
A: 2

Q: And the stoichiometry N [4]?
A: 2

Q: Which results are given for Gh-TDH Y53D mutant (natural protein)?
A: hemolytic activity on rabbit erythrocytes, decrease against Gh-TDH^WT [5]: 20 fold; stoichiometry N [6]: 2; stoichiometry N [7]: 2

Q: “Gh-TDH Y53D/F159D double mutant (natural protein)” was tested. Which hemolytic activity on rabbit erythrocytes, drop against Gh-TDH^WT [8] did it give?
A: 200 fold

Q: “Grimontia hollisae thermostable direct hemolysin, wild type (natural protein)” was tested. Which stoichiometry N [9] did it give?
A: 4
